Our source for the Kd values is publication PMC8131098.

Experiment in all cases: MST
Holding throughout (settings): 50 nM RED-NHS labeled PdtaR, RNA up to 10 uM, autophosphorylation buffer (composition and pH not in material) with 0.025% Tween-20, 50 uM ATP …

Data set [1] addresses T1, PdtaR (unphosphorylated) (Mycobacterium tuberculosis Erdman (ATCC 35801)) (UniProt P9WGM3).
T1 sequence: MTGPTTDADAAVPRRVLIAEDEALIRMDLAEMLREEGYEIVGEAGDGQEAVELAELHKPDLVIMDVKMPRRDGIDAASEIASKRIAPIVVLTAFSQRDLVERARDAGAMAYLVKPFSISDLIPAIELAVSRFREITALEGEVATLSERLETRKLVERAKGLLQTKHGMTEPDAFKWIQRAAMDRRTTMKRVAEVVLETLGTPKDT

In data set [2] the test system is PdtaR (unphosphorylated) (Mycobacterium tuberculosis Erdman (ATCC 35801)).
The test system of data set [3] is PdtaR~P (phosphorylated by PdtaS) (Mycobacterium tuberculosis Erdman (ATCC 35801)).

“GGCAAAAAAUUCGUGCACCAACCCCCCUCCGAGCGCUGCUAAGCUCAAUGUGCAGUGCAAAGGUGCAGAUAAUGAUGGCGCACCGGAACGGCGAGCGUAAGGAAA [rv3864 RNA]” returned a Kd in data set [1] of 2590 nM.

Consider PPE1-5' RNA, for which the Kd in data set [2] was 1280 nM; in data set [3], 410 nM.

Turning to rv3864 RNA, the Kd in data set [2] turned out to be 2590 nM; in data set [3] it was 2120 nM.
